Assay results reported in patent US10047131B2, “Peptides and combination of peptides for use in immunotherapy against ovarian cancer and other cancers” (immatics biotechnologies GmbH, priority 2015, dated 2018).

biological target: HLA-A*02:01 (Homo sapiens, UniProt P04439, D140Y/D185E/D98H/E176V/E277Q/G131W/G231S/I119V/I121R/I166T/I218V/L300P/L318F/N151K/N90K/P208A/P217A/Q86G/Q94H/R138H/R169H/T345S); experiment: MHC binding assay (UV-ligand exchange, ELISA of exchange yield); details: binding to HLA-A*02:01, UV-ligand exchange
Summary of the method: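 ELISA of β2m retained on streptavidin-captured, 100-fold diluted complexes (HRP anti-β2m, TMB, 450 nm) gives the yield. Complexes come from UV-triggered exchange of a photocleavable placeholder peptide for the candidate, which must bind to stop complex dissociation.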

Substance | Peptide exchange (MHC class I binding score, peptide exchange yield)
230 (ILVDWLVEV; listed as Homo sapiens) [compound 230] | “+” (≥10% = +)
231 (FLSPQQPPLLL; listed as Homo sapiens) [compound 231] | “++” (≥20% = ++)
232 (ALLEAQDVELYL; listed as Homo sapiens) [compound 232] | “++” (≥20% = ++)
233 (VLSETLYEL; listed as Homo sapiens) [compound 233] | “++” (≥20% = ++)
234 (ALMEDTGRQML; listed as Homo sapiens) [compound 234] | “++” (≥20% = ++)
235 (YLNDLHEVLL; listed as Homo sapiens) [compound 235] | “++++” (≥75% = ++++)
236 (GLLEAKVSL; listed as Homo sapiens) [compound 236] | “+++” (≥50 = +++)
237 (ALLEASGTLLL; listed as Homo sapiens) [compound 237] | “++++” (≥75% = ++++)
238 (YLISFQTHI; listed as Homo sapiens) [compound 238] | “+++” (≥50 = +++)
239 (AAFAGKLLSV; listed as Homo sapiens) [compound 239] | “+++” (≥50 = +++)
240 (ILLEQAFYL; listed as Homo sapiens) [compound 240] | “+++” (≥50 = +++)
241 (SLVEVNPAYSV; listed as Homo sapiens) [compound 241] | “+++” (≥50 = +++)
242 (AIAYILQGV; listed as Homo sapiens) [compound 242] | “++” (≥20% = ++)
243 (LLLNELPSV; listed as Homo sapiens) [compound 243] | “+++” (≥50 = +++)
244 (SLFGGTEITI; listed as Homo sapiens) [compound 244] | “+++” (≥50 = +++)
245 (SMIDDLLGV; listed as Homo sapiens) [compound 245] | “+++” (≥50 = +++)
246 (LLWEVVSQL; listed as Homo sapiens) [compound 246] | “+++” (≥50 = +++)
247 (VLLPNDLLEKV; listed as Homo sapiens) [compound 247] | “+++” (≥50 = +++)
248 (FLFPNQYVDV; listed as Homo sapiens) [compound 248] | “+++” (≥50 = +++)
249 (LLDGFLVNV; listed as Homo sapiens) [compound 249] | “+++” (≥50 = +++)
250 (ALSEEGLLVYL; listed as Homo sapiens) [compound 250] | “+++” (≥50 = +++)

Substance | Peptide exchange (MHC class I binding score, peptide exchange yield)
251 (ALYTGFSILV; listed as Homo sapiens) [compound 251] | “++” (≥20% = ++)
252 (LLIGTDVSL; listed as Homo sapiens) [compound 252] | “+++” (≥50 = +++)
253 (GLDAATATV; listed as Homo sapiens) [compound 253] | “++” (≥20% = ++)
254 (TLLAFIMEL; listed as Homo sapiens) [compound 254] | “+++” (≥50 = +++)
255 (VLASYNLTV; listed as Homo sapiens) [compound 255] | “+++” (≥50 = +++)
256 (FLPPEHTIVYI; listed as Homo sapiens) [compound 256] | “+++” (≥50 = +++)
257 (SIFSAFLSV; listed as Homo sapiens) [compound 257] | “+++” (≥50 = +++)
258 (ELAERVPAI; listed as Homo sapiens) [compound 258] | “++” (≥20% = ++)
261 (YVLEFLEEI; listed as Homo sapiens) [compound 261] | “++” (≥20% = ++)
262 (LLWGDLIWL; listed as Homo sapiens) [compound 262] | “+++” (≥50 = +++)
263 (LLVSNLDFGV; listed as Homo sapiens) [compound 263] | “+++” (≥50 = +++)
264 (SLQEQLHSV; listed as Homo sapiens) [compound 264] | “+++” (≥50 = +++)
265 (LLFGGTKTV; listed as Homo sapiens) [compound 265] | “++” (≥20% = ++)
266 (KITDTLIHL; listed as Homo sapiens) [compound 266] | “+++” (≥50 = +++)
267 (ALQDFLLSV; listed as Homo sapiens) [compound 267] | “+++” (≥50 = +++)
269 (RVLEVGALQAV; listed as Homo sapiens) [compound 269] | “++” (≥20% = ++)
270 (LLLDEEGTFSL; listed as Homo sapiens) [compound 270] | “++” (≥20% = ++)
271 (LVYPLELYPA; listed as Homo sapiens) [compound 271] | “+++” (≥50 = +++)
272 (ALGNTVPAV; listed as Homo sapiens) [compound 272] | “+++” (≥50 = +++)
273 (NLFQSVREV; listed as Homo sapiens) [compound 273] | “++” (≥20% = ++)
274 (SLLFSLFEA; listed as Homo sapiens) [compound 274] | “++” (≥20% = ++)

Substance | Peptide exchange (MHC class I binding score, peptide exchange yield)
275 (YLVYILNEL; listed as Homo sapiens) [compound 275] | “++” (≥20% = ++)
276 (ALFTFSPLTV; listed as Homo sapiens) [compound 276] | “+++” (≥50 = +++)
277 (LLPPLESLATV; listed as Homo sapiens) [compound 277] | “++” (≥20% = ++)
278 (QLLDVVLTI; listed as Homo sapiens) [compound 278] | “++” (≥20% = ++)
279 (ALWGGTQPLL; listed as Homo sapiens) [compound 279] | “++” (≥20% = ++)
280 (VLPDPEVLEAV; listed as Homo sapiens) [compound 280] | “+++” (≥50 = +++)
281 (ILRESTEEL; listed as Homo sapiens) [compound 281] | “+++” (≥50 = +++)
282 (LLADVVPTT; listed as Homo sapiens) [compound 282] | “+++” (≥50 = +++)
283 (ALYIGDGYVIHLA; listed as Homo sapiens) [compound 283] | “+++” (≥50 = +++)
284 (ILLSQTTGV; listed as Homo sapiens) [compound 284] | “+++” (≥50 = +++)
285 (QLLHVGVTV; listed as Homo sapiens) [compound 285] | “+++” (≥50 = +++)
286 (YLFPGIPEL; listed as Homo sapiens) [compound 286] | “+++” (≥50 = +++)
287 (FLNEFFLNV; listed as Homo sapiens) [compound 287] | “+++” (≥50 = +++)
288 (NLINEINGV; listed as Homo sapiens) [compound 288] | “+++” (≥50 = +++)
289 (VLLEIEDLQV; listed as Homo sapiens) [compound 289] | “++++” (≥75% = ++++)
295 (VLDRESPNV; listed as Homo sapiens) [compound 295] | “+++” (≥50 = +++)
296 (FMEGAIIYV; listed as Homo sapiens) [compound 296] | “+++” (≥50 = +++)
297 (VLADIELAQA; listed as Homo sapiens) [compound 297] | “+++” (≥50 = +++)
298 (VMITKLVEV; listed as Homo sapiens) [compound 298] | “+++” (≥50 = +++)
